The experiment deals with Full-length human plasma kallikrein, activated form (human, UniProt P03952 20-390; P03952 391-638). Description: apparent Ki.

Ki data for 1 molecule are collected here from paper PMC4156074 (2014).

Sequence of Full-length human plasma kallikrein, activated form (P03952 20-390, chain 1 of 2): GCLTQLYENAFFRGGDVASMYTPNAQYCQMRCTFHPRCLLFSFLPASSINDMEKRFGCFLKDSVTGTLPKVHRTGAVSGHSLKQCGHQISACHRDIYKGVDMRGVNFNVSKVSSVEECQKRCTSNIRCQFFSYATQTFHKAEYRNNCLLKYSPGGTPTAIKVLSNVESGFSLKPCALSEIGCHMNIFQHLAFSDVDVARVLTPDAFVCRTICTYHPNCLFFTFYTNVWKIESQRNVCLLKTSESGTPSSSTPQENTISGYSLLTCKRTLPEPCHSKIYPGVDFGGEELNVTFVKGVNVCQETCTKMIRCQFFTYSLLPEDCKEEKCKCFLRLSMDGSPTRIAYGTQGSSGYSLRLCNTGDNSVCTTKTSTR
Sequence of Full-length human plasma kallikrein, activated form (P03952 391-638, chain 2 of 2): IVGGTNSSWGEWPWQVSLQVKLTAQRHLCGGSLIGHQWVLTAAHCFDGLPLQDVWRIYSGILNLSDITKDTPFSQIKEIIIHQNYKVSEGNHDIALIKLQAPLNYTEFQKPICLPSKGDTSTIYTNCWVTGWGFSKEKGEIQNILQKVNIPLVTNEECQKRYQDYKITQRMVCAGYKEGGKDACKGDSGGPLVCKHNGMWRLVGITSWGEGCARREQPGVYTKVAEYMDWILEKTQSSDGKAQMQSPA

B1: Fab M0162-A04 (lead Fab, parent of the affinity maturation) (Fab, V domains shown)
VH: EVQLLESGGGLVQPGGSLRLSCAASGFTFSHYIMMWVRQAPGKGLEWVSGIYSSGGITVYADSVKGRFTISRDNSKNTLYLQMNSLRAEDTAVYYCAYRRTGIPRRDAFDIWGQGTMVTVSS
VL: DIQMTQSPSTLSASVGDRVTITCRASQSISSWLAWYQQKPGKAPNLLIYKASTLESGVPSRFSGSGSGTEFTLTISSLQPDDFATYYCQQYNTYWTFGQGTKVEIK
Turning to B1, the Ki is 5.39 nM.
